Source: article PMC6399494

Experiments:
[1] = cell-surface biotinylation and confocal microscopy, HEK293; details: glycan gained; control: wild type full-length LDLR
[2] = immunoblot, Hepa1c1c7 lysate, normalised to actin; details: glycan gained; control: wild type full-length LDLR
[3] = immunoblot of mature LDLR form, HEK293; details: glycan lost; control: DMSO-treated cells

Substance: LDL receptor (LDLR): D203N
- localisation_or_trafficking [1]: no change
- expression_or_secretion [2]: no change

Substance: LDL receptor (LDLR): tunicamycin, WT LDLR
- localisation_or_trafficking [3]: no change
